Results published in publication PMC4208085 (FEBS Open Bio, 2014).

Biological target: the molecule itself
Test: crystal structure

B1: C-terminal soluble domain of STOPP (stomatin operon partner protein) PH1510 from Pyrococcus horikoshii (domain or fragment, UniProt O59179 371-441, looked up)
chain: KARTGKEEMIGLIGTVVEELNPEGMIKVRGELWKARSKFNGKIEKGEKVRVVDMDGLTLIVVRERKEGGEK
- binding result: binds
